Patent publication US20220002699A1

Target: SARS-CoV-2 spike (S) glycoprotein on live SARS-CoV-2 virus (SARS-CoV-2) (UniProt P0DTC2)
Experiment: cell-based or functional assay

With Neg control the in vitro virus neutralization EC50 was > 10 µg/mL.
